{
  "source": "patent US20260265379A1",
  "data": [
    {"biological_target": "BTN3A expressed at the cell surface (human), O00481", "sequence (O00481 30-513)": "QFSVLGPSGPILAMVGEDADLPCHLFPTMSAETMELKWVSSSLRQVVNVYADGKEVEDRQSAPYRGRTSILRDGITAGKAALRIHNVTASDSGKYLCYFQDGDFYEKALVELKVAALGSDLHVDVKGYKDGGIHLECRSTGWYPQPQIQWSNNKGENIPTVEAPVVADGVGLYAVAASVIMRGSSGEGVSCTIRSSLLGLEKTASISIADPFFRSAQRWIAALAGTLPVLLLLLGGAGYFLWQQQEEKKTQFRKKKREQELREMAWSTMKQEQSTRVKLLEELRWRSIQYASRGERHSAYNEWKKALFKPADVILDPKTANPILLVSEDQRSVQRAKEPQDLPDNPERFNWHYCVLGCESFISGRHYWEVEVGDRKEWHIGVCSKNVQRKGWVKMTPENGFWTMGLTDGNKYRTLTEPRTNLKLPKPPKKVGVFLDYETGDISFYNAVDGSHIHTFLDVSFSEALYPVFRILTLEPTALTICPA", "experiment": "cell-based or functional assay", "values": [
      {"binder": "bsAb068 (bispecific antibody) heavy: QVQLVQSGVEVKKPGASVKVSCKASGYTFTNYYMYWVRQAPGQGLEWMGGINPSNGGTNFNEKFKNRVTLTTDSSTTTAYMELKSLQFDDTAVYYCARRDYRFDMGFDYWGQGTTVTVSSASTKGPSVFPLAPSSKSTSGGTAALGCLVKDYFPEPVTVSWNSGALTSGVHTFPAVLQSSGLYSLSSVVTVPSSSLGTQTYICNVNHKPSNTKVDKRVEPKSCDKTHTCPPCPAPEFEGGPSVFLFPPKPKDTLMISRTPEVTCVVVDVSHEDPEVKFNWYVDGVEVHNAKTKPREEQYNSTYRVVSVLTVLHQDWLNGKEYKCKVSNKALPASIEKTISKAKGQPREPQVYTLPPSREEMTKNQVSLTCLVKGFYPSDIAVEWESNGQPENNYKTTPPVLDSDGSFFLYSKLTVDKSRWQQGNVFSCSVMHEALHNHYTQKSLSLSPG light: not shown", "Jurkat-Vy9Vo2 TCR MOP activation at 0.5 nM (fold-change to medium)": 1.4, "Jurkat-Vy9Vo2 TCR MOP activation at 5 nM (fold-change to medium)": 1.6},
      {"binder": "bsAb038 (bispecific antibody, not shown: small tags and cut ends) heavy (part 1 of 2): QVQLVQSGAEVKKPGASVKLSCKASGYIFTRYYMYWVKQRPGQGLEWIGEINPNNGGTKFNEKFKNRATLTVDKSISTAYMELSRLRSDDTAVYYCSREDDYDGTPFAMDYWGQGTLVTVSS heavy (part 2 of 2): GGGGSGGGGSGGGGSGGGGSEIVLTQSPATLSLSPGERATLSCRASKGVSTSGYSYLHWYQQKPGQAPRLLIYLASYLESGVPARFSGSGSGTDFTLTISSLEPEDFAVYYCQHSRDLPLTFGGGTKVEIKGGGGSGGGGSGGGGSGGGGSQVQLVQSGVEVKKPGASVKVSCKASGYTFTNYYMYWVRQAPGQGLEWMGGINPSNGGTNFNEKFKNRVTLTTDSSTTTAYMELKSLQFDDTAVYYCARRDYRFDMGFDYWGQGTTVTVSS heavy: QVQLVQSGAEVKKPGASVKLSCKASGYIFTRYYMYWVKQRPGQGLEWIGEINPNNGGTKFNEKFKNRATLTVDKSISTAYMELSRLRSDDTAVYYCSREDDYDGTPFAMDYWGQGTLVTVSS light: not shown", "Jurkat-Vy9Vo2 TCR MOP activation at 0.5 nM (fold-change to medium)": 8.5, "Jurkat-Vy9Vo2 TCR MOP activation at 5 nM (fold-change to medium)": 7.2},
      {"binder": "bsAb047 (bispecific antibody, not shown: small tags and cut ends) heavy 1: EIVLTQSPATLSLSPGERATLSCRASKGVSTSGYSYLHWYQQKPGQAPRLLIYLASYLESGVPARFSGSGSGTDFTLTISSLEPEDFAVYYCQHSRDLPLTFGGGTKVEIKGGGGSGGGGSGGGGSGGGGSQVQLVQSGVEVKKPGASVKVSCKASGYTFTNYYMYWVRQAPGQGLEWMGGINPSNGGTNFNEKFKNRVTLTTDSSTTTAYMELKSLQFDDTAVYYCARRDYRFDMGFDYWGQGTTVTVSSGGGGSGGGGSGGGGSGGGGSQVQLVQSGAEVKKPGASVKLSCKASGYIFTRYYMYWVKQRPGQGLEWIGEINPNNGGTKFNEKFKNRATLTVDKSISTAYMELSRLRSDDTAVYYCSREDDYDGTPFAMDYWGQGTLVTVSS heavy 2: QVQLVQSGAEVKKPGASVKLSCKASGYIFTRYYMYWVKQRPGQGLEWIGEINPNNGGTKFNEKFKNRATLTVDKSISTAYMELSRLRSDDTAVYYCSREDDYDGTPFAMDYWGQGTLVTVSS light: not shown", "Jurkat-Vy9Vo2 TCR MOP activation at 0.5 nM (fold-change to medium)": 4, "Jurkat-Vy9Vo2 TCR MOP activation at 5 nM (fold-change to medium)": 5.8},
      {"binder": "bsAb049 (bispecific antibody, not shown: small tags and cut ends) heavy 1: QVQLVQSGVEVKKPGASVKVSCKASGYTFTNYYMYWVRQAPGQGLEWMGGINPSNGGTNFNEKFKNRVTLTTDSSTTTAYMELKSLQFDDTAVYYCARRDYRFDMGFDYWGQGTTVTVSSGGGGSGGGGSGGGGSGGGGSEIVLTQSPATLSLSPGERATLSCRASKGVSTSGYSYLHWYQQKPGQAPRLLIYLASYLESGVPARFSGSGSGTDFTLTISSLEPEDFAVYYCQHSRDLPLTFGGGTKVEIKGGGGSGGGGSGGGGSGGGGSQVQLVQSGAEVKKPGASVKLSCKASGYIFTRYYMYWVKQRPGQGLEWIGEINPNNGGTKFNEKFKNRATLTVDKSISTAYMELSRLRSDDTAVYYCSREDDYDGTPFAMDYWGQGTLVTVSS heavy 2: QVQLVQSGAEVKKPGASVKLSCKASGYIFTRYYMYWVKQRPGQGLEWIGEINPNNGGTKFNEKFKNRATLTVDKSISTAYMELSRLRSDDTAVYYCSREDDYDGTPFAMDYWGQGTLVTVSS light: not shown", "Jurkat-Vy9Vo2 TCR MOP activation at 0.5 nM (fold-change to medium)": 5.9, "Jurkat-Vy9Vo2 TCR MOP activation at 5 nM (fold-change to medium)": 6.2},
      {"binder": "bsAb052 (bispecific antibody, not shown: small tags and cut ends; a dimerising Fc or GST) heavy (part 1 of 2): QVQLVQSGAEVKKPGASVKLSCKASGYIFTRYYMYWVKQRPGQGLEWIGEINPNNGGTKFNEKFKNRATLTVDKSISTAYMELSRLRSDDTAVYYCSREDDYDGTPFAMDYWGQGTLVTVSS heavy (part 2 of 2): GGGGSGGGGSGGGGSGGGGSQVQLVQSGVEVKKPGASVKVSCKASGYTFTNYYMYWVRQAPGQGLEWMGGINPSNGGTNFNEKFKNRVTLTTDSSTTTAYMELKSLQFDDTAVYYCARRDYRFDMGFDYWGQGTTVTVSSGGGGSGGGGSGGGGSGGGGSEIVLTQSPATLSLSPGERATLSCRASKGVSTSGYSYLHWYQQKPGQAPRLLIYLASYLESGVPARFSGSGSGTDFTLTISSLEPEDFAVYYCQHSRDLPLTFGGGTKVEIK heavy: GGGGSGGGGSGGGGSGGGGSQVQLVQSGVEVKKPGASVKVSCKASGYTFTNYYMYWVRQAPGQGLEWMGGINPSNGGTNFNEKFKNRVTLTTDSSTTTAYMELKSLQFDDTAVYYCARRDYRFDMGFDYWGQGTTVTVSSGGGGSGGGGSGGGGSGGGGSEIVLTQSPATLSLSPGERATLSCRASKGVSTSGYSYLHWYQQKPGQAPRLLIYLASYLESGVPARFSGSGSGTDFTLTISSLEPEDFAVYYCQHSRDLPLTFGGGTKVEIK light: not shown", "Jurkat-Vy9Vo2 TCR MOP activation at 0.5 nM (fold-change to medium)": 4.2, "Jurkat-Vy9Vo2 TCR MOP activation at 5 nM (fold-change to medium)": 4.5},
      {"binder": "bsAb056 (bispecific antibody, not shown: a dimerising Fc or GST; small tags and cut ends) heavy 1: GGGGSGGGGSGGGGSGGGGSQVQLVQSGVEVKKPGASVKVSCKASGYTFTNYYMYWVRQAPGQGLEWMGGINPSNGGTNFNEKFKNRVTLTTDSSTTTAYMELKSLQFDDTAVYYCARRDYRFDMGFDYWGQGTTVTVSSGGGGSGGGGSGGGGSGGGGSEIVLTQSPATLSLSPGERATLSCRASKGVSTSGYSYLHWYQQKPGQAPRLLIYLASYLESGVPARFSGSGSGTDFTLTISSLEPEDFAVYYCQHSRDLPLTFGGGTKVEIK heavy 2: QVQLVQSGAEVKKPGASVKLSCKASGYIFTRYYMYWVKQRPGQGLEWIGEINPNNGGTKFNEKFKNRATLTVDKSISTAYMELSRLRSDDTAVYYCSREDDYDGTPFAMDYWGQGTLVTVSS light: not shown", "Jurkat-Vy9Vo2 TCR MOP activation at 0.5 nM (fold-change to medium)": 7, "Jurkat-Vy9Vo2 TCR MOP activation at 5 nM (fold-change to medium)": 10},
      {"binder": "bsAb031 (bispecific antibody) heavy: not shown light: EIVLTQSPATLSLSPGERATLSCRASKGVSTSGYSYLHWYQQKPGQAPRLLIYLASYLESGVPARFSGSGSGTDFTLTISSLEPEDFAVYYCQHSRDLPLTFGGGTKVEIKRTVAAPSVFIFPPSDEQLKSGTASVVCLLNNFYPREAKVQWKVDNALQSGNSQESVTEQDSKDSTYSLSSTLTLSKADYEKHKVYACEVTHQGLSSPVTKSFNRGEC", "Jurkat-Vy9Vo2 TCR MOP activation at 0.5 nM (fold-change to medium)": 1.8, "Jurkat-Vy9Vo2 TCR MOP activation at 5 nM (fold-change to medium)": 2.2},
      {"binder": "bsAb002 (bispecific antibody) heavy: QVQLVQSGVEVKKPGASVKVSCKASGYTFTNYYMYWVRQAPGQGLEWMGGINPSNGGTNFNEKFKNRVTLTTDSSTTTAYMELKSLQFDDTAVYYCARRDYRFDMGFDYWGQGTTVTVSSASTKGPSVFPLAPSSKSTSGGTAALGCLVKDYFPEPVTVSWNSGALTSGVHTFPAVLQSSGLYSLSSVVTVPSSSLGTQTYICNVNHKPSNTKVDKRVEPKSCDKTHTCPPCPAPEFEGGPSVFLFPPKPKDTLMISRTPEVTCVVVDVSHEDPEVKFNWYVDGVEVHNAKTKPREEQYNSTYRVVSVLTVLHQDWLNGKEYKCKVSNKALPASIEKTISKAKGQPREPQVYTLPPSREEMTKNQVSLTCLVKGFYPSDIAVEWESNGQPENNYKTTPPVLDSDGSFFLYSKLTVDKSRWQQGNVFSCSVMHEALHNHYTQKSLSLSPGGGGGSGGGGSGGGGSGGGGSQVQLVQSGAEVKKPGASVKLSCKASGYIFTRYYMYWVKQRPGQGLEWIGEINPNNGGTKFNEKFKNRATLTVDKSISTAYMELSRLRSDDTAVYYCSREDDYDGTPFAMDYWGQGTLVTVSSGGGGSGGGGSGGGGSGGGGSDIQMTQSPSSLSASVGDRVTITCHASQNINVWLSWYQQKPGKAPKLLIYKASNLHTGVPSRFTGSGSGTDFTFTISSLQPEDIATYYCQQGQTYPYTFGQGTKLEIK light: EIVLTQSPATLSLSPGERATLSCRASKGVSTSGYSYLHWYQQKPGQAPRLLIYLASYLESGVPARFSGSGSGTDFTLTISSLEPEDFAVYYCQHSRDLPLTFGGGTKVEIKRTVAAPSVFIFPPSDEQLKSGTASVVCLLNNFYPREAKVQWKVDNALQSGNSQESVTEQDSKDSTYSLSSTLTLSKADYEKHKVYACEVTHQGLSSPVTKSFNRGEC", "Jurkat-Vy9Vo2 TCR MOP activation at 0.5 nM (fold-change to medium)": 1, "Jurkat-Vy9Vo2 TCR MOP activation at 5 nM (fold-change to medium)": 1},
      {"binder": "bsAb032 (bispecific antibody) heavy: not shown light: EIVLTQSPATLSLSPGERATLSCRASKGVSTSGYSYLHWYQQKPGQAPRLLIYLASYLESGVPARFSGSGSGTDFTLTISSLEPEDFAVYYCQHSRDLPLTFGGGTKVEIKRTVAAPSVFIFPPSDEQLKSGTASVVCLLNNFYPREAKVQWKVDNALQSGNSQESVTEQDSKDSTYSLSSTLTLSKADYEKHKVYACEVTHQGLSSPVTKSFNRGEC", "Jurkat-Vy9Vo2 TCR MOP activation at 0.5 nM (fold-change to medium)": 0.9, "Jurkat-Vy9Vo2 TCR MOP activation at 5 nM (fold-change to medium)": 1},
      {"binder": "bsAb061 (bispecific antibody) heavy: QVQLVQSGAEVKKPGASVKLSCKASGYIFTRYYMYWVKQRPGQGLEWIGEINPNNGGTKFNEKFKNRATLTVDKSISTAYMELSRLRSDDTAVYYCSREDDYDGTPFAMDYWGQGTLVTVSSASTKGPSVFPLAPSSKSTSGGTAALGCLVKDYFPEPVTVSWNSGALTSGVHTFPAVLQSSGLYSLSSVVTVPSSSLGTQTYICNVNHKPSNTKVDKRVEPKSCDKTHTCPPCPAPEFEGGPSVFLFPPKPKDTLMISRTPEVTCVVVDVSHEDPEVKFNWYVDGVEVHNAKTKPREEQYNSTYRVVSVLTVLHQDWLNGKEYKCKVSNKALPASIEKTISKAKGQPREPQVYTLPPSREEMTKNQVSLTCLVKGFYPSDIAVEWESNGQPENNYKTTPPVLDSDGSFFLYSKLTVDKSRWQQGNVFSCSVMHEALHNHYTQKSLSLSPG light: not shown", "Jurkat-Vy9Vo2 TCR MOP activation at 0.5 nM (fold-change to medium)": 3.7, "Jurkat-Vy9Vo2 TCR MOP activation at 5 nM (fold-change to medium)": 5.4},
      {"binder": "bsAb062 (bispecific antibody) heavy: QVQLVQSGAEVKKPGASVKLSCKASGYIFTRYYMYWVKQRPGQGLEWIGEINPNNGGTKFNEKFKNRATLTVDKSISTAYMELSRLRSDDTAVYYCSREDDYDGTPFAMDYWGQGTLVTVSSASTKGPSVFPLAPSSKSTSGGTAALGCLVKDYFPEPVTVSWNSGALTSGVHTFPAVLQSSGLYSLSSVVTVPSSSLGTQTYICNVNHKPSNTKVDKRVEPKSCDKTHTCPPCPAPEFEGGPSVFLFPPKPKDTLMISRTPEVTCVVVDVSHEDPEVKFNWYVDGVEVHNAKTKPREEQYNSTYRVVSVLTVLHQDWLNGKEYKCKVSNKALPASIEKTISKAKGQPREPQVYTLPPSREEMTKNQVSLTCLVKGFYPSDIAVEWESNGQPENNYKTTPPVLDSDGSFFLYSKLTVDKSRWQQGNVFSCSVMHEALHNHYTQKSLSLSPG light: not shown", "Jurkat-Vy9Vo2 TCR MOP activation at 0.5 nM (fold-change to medium)": 4.3, "Jurkat-Vy9Vo2 TCR MOP activation at 5 nM (fold-change to medium)": 5.8}
    ]}
  ]
}
